Measured values published in patent publication US11542481B2, “Morphinan N-demethylase isolated from the methylobacterium thebainfresser and methods of use thereof” (priority 2017, dated 2023).

Tests used:
[1] = Proteinase K treatment and cofactor addition, conversion of thebaine to northebaine; format: biochemical; details: 1 hour Proteinase K digestion before 20 min assay, pH 7.0
Method: The first of two assays performed included adding 1500 pmol FAD to the 200 MND enzyme assay including 100 μl purified MND (˜36 μg) and 1500 pmol thebaine in 30 mM potassium phosphate buffer pH 7.0 with and without a prior 1 hour digest (of MND enzyme) with Proteinase K. Controls included a no enzyme control, FAD addition to a no enzyme control, a pET28a empty vector control, a pET28a empty vector control with FAD, and a pET28a empty vector control digested with Proteinase K followed by FAD addition. Assays were allowed to incubate for 20 minutes and then processed as in section 23.0. A second set of assays was performed, in duplicate, to validate the results found in the previous assay in addition to testing more cofactors. This assay included the following conditions; MND enzyme, MND enzyme pre-digested with Proteinase K for 1 hour, MND enzyme digested with Proteinase K in the presence of 1% SDS and 10 mM EDTA, MND enzyme with 1% SDS and 10 mM EDTA (no Proteinase K pre-digestion), pET28a empty vector, pET28a empty vector pre-digested with Proteinase K for 1 hour, pET28a empty vector digested with Proteinase K in the presence of 1% SDS and 10 mM EDTA, MND enzyme with the addition of 1500 pmol FMN, pET28a empty vector with the addition of 1500 pmol FMN, MND enzyme with the addition of 1500 pmol PLP and pET28a empty vector with the addition of 1500 pmol PLP. Assays were allowed to proceed for 20 minutes prior to processing and quantitation as described in section 23.0.

[2] = MND solvent stability assays; format: biochemical; details: for reduction in activity: pH 7.0, 30° C., 20 min
Method: FIG. 27. […] Enzyme assays with 5% and 25% of DMSO, methanol, chloroform, tetrahydrofuran, toluene, heptane, and diethyl ether were performed in duplicate and contained 30 mM potassium phosphate buffer pH 7.0, 36 μg purified enzyme, and 1500 pmol of thebaine. Assays were allowed to proceed for 20 min at 30° C. and analyzed by LC-MS/MS using the QTRAP 6500.
Enzymes used in pharma manufacturing must withstand harsh conditions and tolerate solvents, especially if the substrate is insoluble in water (FIG. 27). MND activity was tested in the following solvents at 5% and 25% concentration: DMSO, methanol, chloroform, tetrahydrofuran, toluene, heptane, and diethyl ether.

[3] = MND enzyme pH optimum assay; format: biochemical; details: 20 min
Method: Enzyme assays with 100 μl purified MND enzyme (˜36 μg), 7.5 μM thebaine, and 60 mM buffer (citrate buffer pH 4 and pH 5, potassium phosphate buffer pH 6.0, pH 7.0, and pH 8.0, and glycine-NaOH buffer pH 9, pH 10, and pH 10.5) in a total assay volume of 200 μl were allowed to incubate at 30° for 20 minutes. Assays with no enzyme and a purified pET28a empty vector control in pH 8.0 were included. The remaining protocol was the same as for the temperature optimum above. A supplemental pH assay was run in the same manner as above to verify the low pH results using a glycine-HCL buffer for pH 2, 3, and 4 and citrate buffer for pH 4, 5, and 6.

[4] = MND enzyme temperature optimum assay; format: biochemical; details: 20 min assays at 20° C.-80° C., pH 8.0, 7.5 μM thebaine
Method: Enzyme assays with 100 μl purified MND enzyme (˜36 μg), 7.5 μM thebaine, and 30 mM potassium phosphate pH 8.0 in a total assay volume of 200 μl were performed in duplicate and allowed to incubate at the following temperatures for 20 minutes: 20° C., 25° C., 30° C., 40° C., 50° C., 60° C., 70° C. and 80° C. Assays with purified pET28a empty vector control were included at each temperature. Assays were quenched by the addition of 400 μl MeOH followed by rapid mixing for 30 s then subject to centrifugation (16,000×g, 30 min, RT). Samples were diluted further (total of 50 fold dilution) to achieve an analyte concentration of 0.15 μM prior to filtration (low protein binding 0.2 μm, 4 mm, PTFE; Millipore) and introduction into the QTRAP 6500 using Method 1.

[5] = format: cell-based, E. coli; details: BL21 Star (DE3) cells, toluene treated, 20 μM thebaine, overnight 30° C.
[6] = MND enzyme stability assay; format: biochemical; details: pre-incubated at 30° C. in assay buffer pH 7.0 up to 72 hours, then 20 min with thebaine
Method: 100 μl purified MND enzyme (˜36 μg) was incubated in 30 mM potassium phosphate buffer pH 7.0 at 30° C. for 72, 48, 24, 6, 3, and 1 hours prior to addition of 1500 pmol thebaine in a total volume of 200 μl. The assay was allowed to proceed for 20 minutes after substrate addition and was processed and analyzed as in section 23.0.

B1: MND enzyme: morphinan N-demethylase identified from the Methylobacterium Thebainfresser, amino acid sequence SEQ ID NO: 2, His-tagged, expressed in E. coli (protein)
chain: MTEKTPKLGSEAANKLGLEADISRRDMVGGVLIGAGAALLASVAPGAINRALAEGPSRLPPVRGSGTGWRGIEIADDWQGPGGIGDYSKSNGNTGKVIRDAHAGIRNHEFEKRLATASDVNEKYDVIIVGAGISGLHSAYDLLRQRPNIKILMLDNHAIFGGEAKQNKMEVDGQALYGGQGPTLYSFVGDDLPSWKGNPALASIMELKTYPKEFGLPTETTWSDKKTDVKVPVDLWFSMASPSQTDIAYRWEGSGLVKNPLLNSFRDAPVSQKSKDAIALMLAVDNGAKRPVEPVGDVSTWVDNMTYAEFLKKVYGADDEAVQLVDQIDVVGTAGLGGDVFNASLAALGLNQYGGIELWNGGLQGLSLPTGNGGVGRSILRKFMPGAIKGGTSLTDTLFGDVNWDVLDHANNNVRIRLNSTVVGVQNNETPTGTKDATVFFLHDNRLYKAKGKAVIMGTPQQVNRNVCLNLPNHLSEAMGDFHHAPILVVNVALRNWKSMEKAGVSGLRWFGEYPGIGQIVRSMVIDGKEIMPCDPSKPAVMTFYIPMNQATRGMPRGEQAMTARHMLFNLTFADIELLIRDQLTRAFGSYGFDAKRDIAAIVANRWGHALVCAGPGFYTGLNGKPPVSKVITAGWDRVAFGHSDLSGRQAWTVAVNYARTAVANVFPKI
modifications: His tag; Methylobacterium Thebainfresser
With B1 the “amount of northebaine produced after Proteinase K treatment of the enzyme” value [1] was “increased”, the “activity (in words)” value ([2]; 5% DMSO) was “little to no reduction in activity” and the “activity (in words)” value ([2]; 5% methanol) was “little to no reduction in activity”. The “activity (in words)” value ([2]; 5% toluene) was “little to no reduction in activity”, the reduction in activity ([2]; 25% DMSO) was 21% and the “activity (in words)” value ([2]; 25% chloroform) was “completely abolished”. The reduction in activity ([2]; 25% methanol) was 43%, the “activity (in words)” value ([2]; 25% tetrahydrofuran) was “completely abolished” and the reduction in activity ([2]; 25% toluene) was 44%. The reduction in activity ([2]; diethyl ether (25%)) was 66%, the “activity (in words)” value ([2]; heptane, outlier, heptane sat on top of the reaction) was “no reduction in activity” and the “northebaine production at pH 4 compared with pH 5-10.5” value ([3]; citrate buffer pH 4, 30° C., not observed in glycine-HCL buffer) was “nearly twice as much”. The “difference in northebaine production within the pH range” value ([3]; pH range of 5-10.5, 30° C.) was “no significant difference”, the “temperature of highest northebaine accumulation” value [4] was 60 °C and the “morphinan N-demethylase activity (northebaine production, in words)” value [5] was “showed morphinan N-demethylase activity”. For the same molecule, the “ability to demethylate thebaine after pre-incubation (stability)” value [6] was “maintained its ability to demethylate thebaine”.
